Where a chain is given by its changes, count along the chain named. Values belong to the binder of their own block, whether it stands above or below them.
Legend:
[1] = target: T1, cynomolgus monkey 5T4 antigen (cynomolgus monkey, UniProt Q4R8Y9 35-420); assay: flow cytometry, CHOZN cells expressing cyno 5T4
T1 construct: whole, on cells; also called cyno 5T4
T1 sequence (looked up): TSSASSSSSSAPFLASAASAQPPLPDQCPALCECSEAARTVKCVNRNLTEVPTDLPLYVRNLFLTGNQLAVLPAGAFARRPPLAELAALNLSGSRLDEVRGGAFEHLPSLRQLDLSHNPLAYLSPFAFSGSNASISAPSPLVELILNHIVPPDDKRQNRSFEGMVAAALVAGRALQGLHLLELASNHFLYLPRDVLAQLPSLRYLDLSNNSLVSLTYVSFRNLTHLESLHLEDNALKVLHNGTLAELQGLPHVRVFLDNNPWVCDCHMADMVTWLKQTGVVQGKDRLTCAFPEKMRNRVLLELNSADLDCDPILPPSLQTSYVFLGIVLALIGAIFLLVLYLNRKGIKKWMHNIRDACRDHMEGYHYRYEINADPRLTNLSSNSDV

[2] = target: T2, human 5T4 oncofoetal antigen (human, UniProt Q13641 32-420); assay: flow cytometry, CHOZN cells expressing hu 5T4
T2 construct: whole, on cells; also called hu 5T4; human 5T4 antigen
T2 sequence (looked up): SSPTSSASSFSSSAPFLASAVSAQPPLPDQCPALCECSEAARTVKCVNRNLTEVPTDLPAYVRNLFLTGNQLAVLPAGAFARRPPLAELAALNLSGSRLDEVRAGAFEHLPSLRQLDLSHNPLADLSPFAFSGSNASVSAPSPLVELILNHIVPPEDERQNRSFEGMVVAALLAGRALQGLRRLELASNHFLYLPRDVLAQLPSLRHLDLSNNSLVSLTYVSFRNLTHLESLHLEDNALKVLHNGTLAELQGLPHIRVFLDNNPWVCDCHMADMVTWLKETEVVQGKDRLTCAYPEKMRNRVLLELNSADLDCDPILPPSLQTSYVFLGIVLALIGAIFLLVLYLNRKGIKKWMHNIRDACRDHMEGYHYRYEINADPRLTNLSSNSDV

- EC50 [1]: 0.53 µg/mL
- EC50 [2]: 0.15 µg/mL
B1: humanized anti-5T4 antibody 825a with HC-41C mutation (antibody, human IgG1, kappa, V domains shown)
VH: EVQLVESGGDLAQPGGSLRLSCAVSGIDLSSYGMGWVRQACGKGLEWVSIISRNSVTYYATWAKGRFTISRDNSKNTVYLQMTSLRAEDTALYFCARRATYSGALGYFDIWGQGTLVTVSS
VL: EIVMTQSPSSLSASVGDRVTITCQASENIYSTLAWYQQKPGKAPKLLIYDAFDLASGVPSRFSGSGSGTDYTLTISSLQPEDFATYYCQQGYSGTNVDNAFGQGTKLEIKR

- EC50 [1]: 0.42 µg/mL
- EC50 [2]: 0.21 µg/mL
B2: humanized anti-5T4 antibody 825c with HC-41C mutation (antibody, human IgG1, kappa, V domains shown)
VH: B1 VH with V5E, D10G, A12V, Q13K, V24A, V78L, T83N, L92V, F94Y, Q113R
VL: B1 VL with E1G, I2Y, V3D, L11V, S63K, D70E, Q103G, L107V
